Assay results from patent US20250222128A1, “ANTIBODY DRUG-CONJUGATES TARGETING C-MET AND METHODS OF USE THEREOF” (Zymeworks BC Inc., priority 2022, published 2025).
“Also recorded” adds a separate entry of the source.

Columns and labels:
Format in all cases: cell-based
[1] = test system: H596 lung cancer cells; experiment: cMet pathway agonism by cell proliferation; settings: serum starved cells; titration of test article; 6 days; FIG. 4 and FIG. 6
Procedure: (§1) cMet pathway agonism of the anti-cMet antibody variant v17427 (HetFc, unmodified hinge) and ADCs comprising variant v17427 stochastically cysteine-conjugated to Drug-Linker 001 or MCvcPABC-MMAE at DAR 4 was assessed by cell proliferation and ELISA to measure for AKT phosphorylation as a downstream indicator of cMET activation.
Cell proliferation: Briefly, H596 lung cancer cells were serum starved overnight (37° C., 5% CO2) by replacing the complete growth medium with serum-free RPMI-1640 (Thermo Fisher Scientific Inc., Waltham, MA; Cat. No. A1049101). Cells were then detached with Cell Dissociation Buffer (Thermo Fisher Scientific Inc., Cat. No. 13151014), resuspended in RPMI-1640 supplemented with 1% FBS (v/v) (Thermo Fisher Scientific Inc., Cat. No. 12483-020) and seeded in 384-well tissue culture plates at a density of 1,000 cells/well. […] After incubation, CellTiter-Glo® reagent (Promega Corporation, Madison, WI; Cat. No. G7570) was spiked in all wells and luminescence corresponding to ATP present in each well was measured using a Synergy™ H1 microplate (BioTek Instruments, Winooski, VT). Based on untreated cells (no test article added), % viability values were calculated using ATP measurement RLU values (Relative Light Units) and plotted against test article concentration using GraphPad Prism 8 software (GraphPad Software, San Diego, CA). […]

[2] = test system: AKT phosphorylation in H596 lung cancer cells; experiment: cMet pathway agonism by Phospho-AKT ELISA; settings: 100 nM, up to 60 minutes, FIG. 5A
Procedure: as §1
(§2) Phospho-AKT ELISA: Briefly, H441 or H596 lung cancer cells were detached with Cell Dissociation Buffer, seeded in 24-well tissue culture plates with RPMI-1640+10% FBS at a density of 50,000 cells/well, and incubated overnight (37° C., 5% CO2). Cells were then serum starved overnight (37° C., 5% CO2) by replacing the complete growth medium with serum-free RPMI-1640. […] Lysate protein concentration was assessed by a BCA protein assay (Thermo Fisher Scientific Inc., Cat. No. 23223 and 23224). Phospho-AKT levels in 10 μg of lysate was assessed using the PathScan® Phospho-Akt1 (Ser473) Sandwich ELISA Kit (Cell Signaling Technology, Cat. No. 7160C) as per manufacturer's instructions. Absorbance at 450 nm was measured using a Synergy™ H1 microplate (BioTek Instruments, Winooski, VT). Fold AKT phosphorylation was calculated by subtracting background A450 nm signal from all wells using signal blank wells, and then normalizing to the A450 nm signal of untreated cells at each corresponding timepoint. […]

[3] = test system: AKT phosphorylation in H441 lung cancer cells; experiment: cMet pathway agonism by Phospho-AKT ELISA; settings: 100 nM, up to 60 minutes, FIG. 5B and FIG. 7
Procedure: as §1, §2

B1: v17429: control antibody, bivalent version of the anti-cMet antibody MetMab (onartuzumab), HetFc (antibody, chains of the INN, looked up, V domains shown)
VH: EVQLVESGGGLVQPGGSLRLSCAASGYTFTSYWLHWVRQAPGKGLEWVGMIDPSNSDTRFNPNFKDRFTISADTSKNTAYLQMNSLRAEDTAVYYCATYRSYVTPLDYWGQGTLVTVSS
VL: DIQMTQSPSSLSASVGDRVTITCKSSQSLLYTSSQKNYLAWYQQKPGKAPKLLIYWASTRESGVPSRFSGSGSGTDFTLTISSLQPEDFATYYCQQYYAYPWTFGQGTKVEIK
modifications: bivalent IgG, HetFc
H596 proliferation compared to untreated controls [1]: dose-dependent increase in H596 proliferation; also recorded: strong dose-dependent increase in proliferation
AKT phosphorylation [2]: strong AKT phosphorylation
AKT phosphorylation [3]: strong AKT phosphorylation; also recorded: strongly induced phosphorylation
